Source: patent US20050202403A1
Where “and” joins values, the source holds several entries; their conditions need not be identical. Equal entries are not always repeated. Blank lines part the entries; values can stand above or below the substance they belong to.

Legend:
[1] = target: yeast Gβγ (STE4/STE18) (Saccharomyces cerevisiae) (UniProt P18851); assay: cell-based or functional assay
[2] = target: human adenosine A2a receptor (human) (UniProt P29274); assay: cell-based or functional assay
human adenosine A2a receptor (human), sequence (P29274 whole entry): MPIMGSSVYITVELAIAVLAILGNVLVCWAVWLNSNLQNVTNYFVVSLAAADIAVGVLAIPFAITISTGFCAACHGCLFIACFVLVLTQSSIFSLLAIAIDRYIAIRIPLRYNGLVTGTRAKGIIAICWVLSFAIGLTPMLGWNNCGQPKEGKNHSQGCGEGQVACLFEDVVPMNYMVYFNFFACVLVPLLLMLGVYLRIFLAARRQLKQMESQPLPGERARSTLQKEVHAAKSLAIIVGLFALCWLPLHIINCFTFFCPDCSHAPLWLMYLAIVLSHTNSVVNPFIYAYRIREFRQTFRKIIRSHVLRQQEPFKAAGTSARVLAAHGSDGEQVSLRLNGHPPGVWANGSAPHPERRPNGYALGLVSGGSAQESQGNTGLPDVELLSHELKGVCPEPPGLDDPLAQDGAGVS

yeast Gβγ (STE4/STE18) (Saccharomyces cerevisiae), sequence (P18851 whole entry, chain 1 of 2): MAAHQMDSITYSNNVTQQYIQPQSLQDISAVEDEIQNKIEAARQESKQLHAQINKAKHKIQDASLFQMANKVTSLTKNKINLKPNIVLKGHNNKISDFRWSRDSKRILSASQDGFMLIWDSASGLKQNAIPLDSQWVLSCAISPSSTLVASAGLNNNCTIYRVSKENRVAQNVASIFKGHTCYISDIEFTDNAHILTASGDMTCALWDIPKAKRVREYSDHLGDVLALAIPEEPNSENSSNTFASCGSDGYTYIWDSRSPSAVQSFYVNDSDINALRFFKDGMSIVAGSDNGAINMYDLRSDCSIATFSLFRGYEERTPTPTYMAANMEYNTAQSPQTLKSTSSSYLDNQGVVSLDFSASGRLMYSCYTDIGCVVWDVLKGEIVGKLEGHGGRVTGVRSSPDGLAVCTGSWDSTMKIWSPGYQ
yeast Gβγ (STE4/STE18) (Saccharomyces cerevisiae), sequence (P18852 1-107, chain 2 of 2, further chain): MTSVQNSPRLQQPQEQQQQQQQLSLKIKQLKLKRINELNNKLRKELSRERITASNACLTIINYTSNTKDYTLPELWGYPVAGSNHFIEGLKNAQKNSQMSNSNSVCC
GPA1-Gα12 S288P chimera (Cp3822), sequence (P08539 1-41, stated change not applied): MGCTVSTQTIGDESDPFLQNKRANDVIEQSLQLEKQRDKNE
GPA1-Gα12 chimera (Cp3435), sequence (P08539 1-41, change not shown): as the sequence (P08539 1-41, stated change not applied) above
rat Gαs, wild type (Cp3098), sequence (P63095 2-394): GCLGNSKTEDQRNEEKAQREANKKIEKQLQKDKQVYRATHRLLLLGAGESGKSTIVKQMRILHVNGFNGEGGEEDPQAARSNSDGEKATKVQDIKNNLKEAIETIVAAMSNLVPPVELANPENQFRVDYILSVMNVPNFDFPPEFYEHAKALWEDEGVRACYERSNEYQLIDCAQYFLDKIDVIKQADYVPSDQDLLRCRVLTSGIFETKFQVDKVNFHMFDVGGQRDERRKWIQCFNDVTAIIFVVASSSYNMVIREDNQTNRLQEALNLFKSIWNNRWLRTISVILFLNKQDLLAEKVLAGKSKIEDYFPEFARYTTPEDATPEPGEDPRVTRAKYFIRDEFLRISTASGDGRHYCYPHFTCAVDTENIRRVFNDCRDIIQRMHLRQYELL
Gpal(1-43)-Gαi2(36-242)-GαoB(243-354) S280P chimera (Cp3635), sequence (P08539 1-43, stated change not applied): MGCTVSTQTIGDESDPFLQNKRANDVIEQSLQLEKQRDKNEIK
GPA1(20)-Gα16, sequence (P08539 1-20): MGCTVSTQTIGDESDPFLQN
GPA1(41)-Gαi2-Gαo(40), sequence (P08539 1-41): as the sequence (P08539 1-41, stated change not applied) above
GPA1(41)-Gαi1, sequence (P08539 1-41): as the sequence (P08539 1-41, stated change not applied) above

Substance: GPA1(20)-Gα16(S-P) (from UniProt P08539 1-20)
min[AT]i [1]: 0.5 mM

Substance: GPA1(41)-Gαi1 (from UniProt P08539 1-41)
min[AT]i [1]: 0.5 mM

Substance: GPA1(41)-Gαi2 (from UniProt P08539 1-41; P04899 36-355)
min[AT]i [1]: 0.5 mM

Substance: GPA1(41)-Gαi2-Gαo(40) (from UniProt P08539 1-41)
min[AT]i [1]: 1 mM

Substance: GPA1-Gα12 chimera (Cp3435) (from UniProt P08539 1-41)
growth of gpa1 fus1-HIS3 yeast on aminotriazole [1]: 2.5 mM and 1 mM

Substance: Gpal(1-43)-Gα16(45-374) S270P chimera (Cp3699) (from UniProt P08539 1-43; P30679 45-374)
min[AT]i [1]: 1 mM

Substance: rat Gαs D229V (from UniProt P63095 2-394)
growth of the gpal fusl-HIS3 strain on 3-AT [1]: 0.2 mM

Substance: rat Gαs E10K (from UniProt P63095 2-394)
growth of the gpal fusl-HIS3 strain on 3-AT [1]: 0.2 mM
fusl-lacZ reporter, β-galactosidase units on addition of NECA [2]: 10 fold

Substance: rat Gαs E10K D229S double mutant (from UniProt P63095 2-394)
fusl-lacZ reporter, β-galactosidase units on addition of NECA [2]: 10 fold

The remaining lines, values ahead:

min[AT]i [1]: 1 mM
Substance: GPA1(20)-Gα16 (from UniProt P08539 1-20)

min[AT]i [1]: 0.5 mM
Substance: GPA1(41)-Gαi3 (from UniProt P08539 1-41; P08754 36-354)

growth of gpa1 fus1-HIS3 yeast on aminotriazole [1]: 0.5 mM
min[AT]i [1]: 1 mM
Substance: GPA1-Gα12 S288P chimera (Cp3822) (from UniProt P08539 1-41)

min[AT]i [1]: 1 mM
Substance: Gpal(1-43)-Gαi2(36-242)-GαoB(243-354) S280P chimera (Cp3635) (from UniProt P08539 1-43)

min[AT]i [1]: 1.5 mM
Substance: Gαi1

fusl-lacZ reporter, β-galactosidase units on addition of NECA [2]: 10 fold
Substance: rat Gαs D229S (Cp3390) (from UniProt P63095 2-394)

growth of the gpal fusl-HIS3 strain on 3-AT [1]: 0.2 mM
fusl-lacZ reporter, β-galactosidase units on addition of NECA [2]: 10 fold
Substance: rat Gαs N254D (from UniProt P63095 2-394)

growth of the gpal fusl-HIS3 strain on 3-AT [1]: 0.2 mM
fusl-lacZ reporter, β-galactosidase units on addition of NECA [2]: 10 fold
Substance: rat Gαs S286P (from UniProt P63095 2-394)

growth of a gpal fusl-HIS3 colony on media lacking histidine with 3-AT [1]: 1 mM
Substance: rat Gαs, wild type (Cp3098) (from UniProt P63095 2-394)
